Measurements from patent US20220251236A1 (Boehringer Ingelheim, published 2022).

T1: Human DLL3-His (human, UniProt Q9NYJ7 27-492)
T1 construct: also called huDLL3-His; hu DLL3
T1 sequence: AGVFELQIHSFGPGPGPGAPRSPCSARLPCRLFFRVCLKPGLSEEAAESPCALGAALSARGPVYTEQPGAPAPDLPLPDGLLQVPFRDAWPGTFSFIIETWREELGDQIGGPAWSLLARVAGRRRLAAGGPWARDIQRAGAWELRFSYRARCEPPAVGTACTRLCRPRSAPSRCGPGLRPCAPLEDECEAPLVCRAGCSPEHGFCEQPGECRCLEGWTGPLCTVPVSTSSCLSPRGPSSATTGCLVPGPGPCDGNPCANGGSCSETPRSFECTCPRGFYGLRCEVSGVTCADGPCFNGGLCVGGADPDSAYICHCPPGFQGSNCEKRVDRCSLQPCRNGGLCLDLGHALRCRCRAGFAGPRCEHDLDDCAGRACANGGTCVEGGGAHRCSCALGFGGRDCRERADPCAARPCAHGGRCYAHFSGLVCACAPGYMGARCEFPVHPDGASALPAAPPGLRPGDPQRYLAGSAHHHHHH

T2: EGF1+2
T2 construct: also called Hu DLL3 EGF1+2 on HEK293 cells
T2 membrane-anchored DLL3 subdomain construct: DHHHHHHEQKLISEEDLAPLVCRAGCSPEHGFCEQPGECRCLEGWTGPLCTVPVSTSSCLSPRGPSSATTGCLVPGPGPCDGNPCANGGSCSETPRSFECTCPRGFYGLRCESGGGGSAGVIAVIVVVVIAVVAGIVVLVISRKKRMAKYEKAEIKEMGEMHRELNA

T3: EGF2+3
T3 construct: also called Hu DLL3 EGF2+3 on HEK293 cells
T3 membrane-anchored DLL3 subdomain construct: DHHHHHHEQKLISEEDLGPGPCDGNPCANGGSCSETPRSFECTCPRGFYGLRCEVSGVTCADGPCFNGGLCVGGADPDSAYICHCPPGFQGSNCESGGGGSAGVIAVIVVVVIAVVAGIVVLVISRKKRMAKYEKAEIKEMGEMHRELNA

T4: EGF3+4
T4 construct: also called Hu DLL3 EGF3+4 on HEK293 cells
T4 membrane-anchored DLL3 subdomain construct: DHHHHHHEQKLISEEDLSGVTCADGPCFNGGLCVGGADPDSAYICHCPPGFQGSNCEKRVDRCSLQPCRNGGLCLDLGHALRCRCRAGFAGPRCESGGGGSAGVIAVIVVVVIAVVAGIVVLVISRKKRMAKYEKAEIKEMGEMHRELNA

T5: EGF5+6
T5 construct: also called Hu DLL3 EGF5+6 on HEK293 cells
T5 membrane-anchored DLL3 subdomain construct: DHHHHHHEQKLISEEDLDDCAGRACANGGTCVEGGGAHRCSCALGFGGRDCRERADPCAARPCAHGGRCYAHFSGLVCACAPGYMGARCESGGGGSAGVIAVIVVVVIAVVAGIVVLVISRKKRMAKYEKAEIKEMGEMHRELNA

T6: EGF6+MEMBRANE PROXIMAL PEPTIDE
T6 construct: also called Hu DLL3 EGF6+membrane proximal peptide on HEK293 cells
T6 membrane-anchored DLL3 subdomain construct: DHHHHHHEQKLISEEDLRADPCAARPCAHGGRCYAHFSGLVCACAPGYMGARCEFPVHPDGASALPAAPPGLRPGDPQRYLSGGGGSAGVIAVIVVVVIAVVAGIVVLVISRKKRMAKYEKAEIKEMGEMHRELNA

B1: DLL3#2/CD3#1 (bispecific antibody, human IgG1, kappa, lambda, L234A L235A)
chain 1: DIQMTQSPSAMSASVGDRVTITCRASQGISNYLAWFQQKPGKVPEPLIYAASSLQSGVPSRFSGSGSVTEFTLTISSLQPEDFATYYCLQHNSSPYTFGQGTKLEIKRTVAAPSVFIFPPSDEQLKSGTASVVCLLNNFYPREAKVQWKVDNALQSGNSQESVTEQDSKDSTYSLSSTLTLSKADYEKHKVYACEVTHQGLSSPVTKSFNRGECGGGGSEGKSSGSGSESKSTEGKSSGSGSESKSTGGGGSQVQLVQSGAEVKKPGASVKVSCKASGYTFTSYYMHWVRQAPGQGLEWMGIINPSGGSTSYAQKFQGRVTMTRDTSTSTVYMELSSLRSEDTAVYYCARGEAVGGNYYYYGMDVWGQGTTVTVSSASTKGPSVFPLAPSSKSTSGGTAALGCLVKDYFPEPVTVSWNSGALTSGVHTFPAVLQSSGLYSLSSVVTVPSSSLGTQTYICNVNHKPSNTKVDKRVEPKSCDKTHTCPPCPAPEAAGGPSVFLFPPKPKDTLMISRTPEVTCVVVDVSHEDPEVKFNWYVDGVEVHNAKTKPREEQYNSTYRVVSVLTVLHQDWLNGKEYKCKVSNKALPAPIEKTISKAKGQPREPQVYTLPPSREEMTKNQVSLWCLVKGFYPSDIAVEWESNGQPENNYKTTPPVLDSDGSFFLYSKLTVDKSRWQQGNVFSCSVMHEALHNHYTQKSLSLSPG
chain 2: EAVVTQEPSLTVSPGGTVTLTCRSSTGAVTTSNYANWVQEKPGQLPRGLIGGTNKRAPWVPARFSGSLLGGKAALTLSGAQPEDEAEYFCALWYSNLWVFGGGTKLTVLGQPKAAPSVTLFPPSSEELQANKATLVCLISDFYPGAVKVAWKADGSPVNTGVETTTPSKQSNNKYAASSYLSLTPEQWKSHRSYSCQVTHEGSTVEKTVAPAECSGGGGSEGKSSGSGSESKSTEGKSSGSGSESKSTGGGGSEVQLVESGGGLVQPGGSLKLSCAASGFTFNTYAMNWVRQAPGKGLEWVARIRSKYNNYATYYADSVKDRFTISRDDSKNTAYLQMNNLKTEDTAVYYCVRHGNFGNSYVSWFAYWGQGTLVTVSAASTKGPSVFPLAPSSKSTSGGTAALGCLVKDYFPEPVTVSWNSGALTSGVHTFPAVLQSSGLYSLSSVVTVPSSSLGTQTYICNVNHKPSNTKVDKRVEPKSCDKTHTCPPCPAPEAAGGPSVFLFPPKPKDTLMISRTPEVTCVVVDVSHEDPEVKFNWYVDGVEVHNAKTKPREEQYNSTYRVVSVLTVLHQDWLNGKEYKCKVSNKALPAPIEKTISKAKGQPREPQVYTLPPSREEMTKNQVSLSCAVKGFYPSDIAVEWESNGQPENNYKTTPPVLDSDGSFFLVSKLTVDKSRWQQGNVFSCSVMHEALHNRFTQKSLSLSPG
notes: Heterodimer of one DLL3 chain and one CD3 chain (scFab-Fc, knob-in-hole)
B2: DLL3#13/CD3#1 (bispecific antibody, human IgG1, kappa, lambda, L234A L235A)
chain 1: DVLMTQTPLSLPVSLGDQAAISCRSSQSIVHSNGNTYLEWYLQKPGQSPKVLIYKVSNRFSGVPDRFSGSGSGTDFTLKISRVEAEDLGVYYCFQGSHVPYTFGGGTKLEIKRTVAAPSVFIFPPSDEQLKSGTASVVCLLNNFYPREAKVQWKVDNALQSGNSQESVTEQDSKDSTYSLSSTLTLSKADYEKHKVYACEVTHQGLSSPVTKSFNRGECGGGGSEGKSSGSGSESKSTEGKSSGSGSESKSTGGGGSQIQLVQSGPELKKPGETVKISCKASGYTFTNYGVTWVKQAPGKGLKWMGWINTYSGAPTYADDFNGRFALSLETSASTAYLQINNLKNEDTATYFCARLDDYDLYYFDYWGQGTALTVSSASTKGPSVFPLAPSSKSTSGGTAALGCLVKDYFPEPVTVSWNSGALTSGVHTFPAVLQSSGLYSLSSVVTVPSSSLGTQTYICNVNHKPSNTKVDKRVEPKSCDKTHTCPPCPAPEAAGGPSVFLFPPKPKDTLMISRTPEVTCVVVDVSHEDPEVKFNWYVDGVEVHNAKTKPREEQYNSTYRVVSVLTVLHQDWLNGKEYKCKVSNKALPAPIEKTISKAKGQPREPQVYTLPPSREEMTKNQVSLWCLVKGFYPSDIAVEWESNGQPENNYKTTPPVLDSDGSFFLYSKLTVDKSRWQQGNVFSCSVMHEALHNHYTQKSLSLSPG
chain 2: EAVVTQEPSLTVSPGGTVTLTCRSSTGAVTTSNYANWVQEKPGQLPRGLIGGTNKRAPWVPARFSGSLLGGKAALTLSGAQPEDEAEYFCALWYSNLWVFGGGTKLTVLGQPKAAPSVTLFPPSSEELQANKATLVCLISDFYPGAVKVAWKADGSPVNTGVETTTPSKQSNNKYAASSYLSLTPEQWKSHRSYSCQVTHEGSTVEKTVAPAECSGGGGSEGKSSGSGSESKSTEGKSSGSGSESKSTGGGGSEVQLVESGGGLVQPGGSLKLSCAASGFTFNTYAMNWVRQAPGKGLEWVARIRSKYNNYATYYADSVKDRFTISRDDSKNTAYLQMNNLKTEDTAVYYCVRHGNFGNSYVSWFAYWGQGTLVTVSAASTKGPSVFPLAPSSKSTSGGTAALGCLVKDYFPEPVTVSWNSGALTSGVHTFPAVLQSSGLYSLSSVVTVPSSSLGTQTYICNVNHKPSNTKVDKRVEPKSCDKTHTCPPCPAPEAAGGPSVFLFPPKPKDTLMISRTPEVTCVVVDVSHEDPEVKFNWYVDGVEVHNAKTKPREEQYNSTYRVVSVLTVLHQDWLNGKEYKCKVSNKALPAPIEKTISKAKGQPREPQVYTLPPSREEMTKNQVSLSCAVKGFYPSDIAVEWESNGQPENNYKTTPPVLDSDGSFFLVSKLTVDKSRWQQGNVFSCSVMHEALHNRFTQKSLSLSPG
notes: as for B1

Assays:
Human DLL3-His = biological target: T1, Human DLL3-His; assay: SPR (ProteOn XPR36), bispecific captured on protein A/G, hu DLL3 as analyte, Example 4B
Procedure, shortened: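 Bispecific constructs captured on protein A/G for 200 s at 30 μl/min, baseline stabilized with PBS-T-EDTA. Human DLL3 analyte injected 300 s at 30 μl/min; dissociation followed for 1800 s.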

EGF1+2 = biological target: T2, EGF1+2; assay: flow cytometry on HEK293 cells expressing the DLL3 subdomain construct, PE anti-human secondary, control: secondary antibody only
Procedure, shortened: (§1)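 Binders tested on HEK293 cells displaying the DLL3 subdomain construct; bound molecules detected by flow cytometry using PE-conjugated anti-human secondary antibody. Negative control: cells with secondary antibody only.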

EGF2+3 = biological target: T3, EGF2+3; assay: as above
Procedure, shortened: as §1

EGF3+4 = biological target: T4, EGF3+4; assay: as above
Procedure, shortened: as §1

EGF5+6 = biological target: T5, EGF5+6; assay: as above
Procedure, shortened: as §1

[1] = biological target: T6, EGF6+MEMBRANE PROXIMAL PEPTIDE; assay: flow cytometry on HEK293 cells expressing the DLL3 subdomain construct, 1.6 nM binder, PE anti-human secondary, control: secondary antibody only
Method: DLL3/CD3 binding proteins were produced by transient transfection of CHO-E cells with the pTT5 vectors carrying the chain-encoding genes, as described in Example 2. […] Bound molecules were detected with PE-conjugated anti-human secondary antibody (Sigma-Aldrich, #P8047). As negative control, cells were incubated with secondary antibody only.
The samples were measured by flow-cytometry. […] The sequences of the epitope domains are listed in Example 5, Table 3.

[2] = biological target: T6, EGF6+MEMBRANE PROXIMAL PEPTIDE; assay: flow cytometry on HEK293 cells expressing the DLL3 subdomain construct, PE anti-human secondary, control: secondary antibody only
Procedure, shortened: as §1

Binder	Kd (Human DLL3-His)	binding result (EGF1+2)	binding result (EGF2+3)	binding result (EGF3+4)	binding result (EGF5+6)	binding result [1]	binding result [2]
B1	0.091 nM	no binding (tested: 1.6 nM)	no binding (tested: 1.6 nM)	no binding (tested: 1.6 nM)	no binding (tested: 1.6 nM)	binds	–
B2	0.023 nM	no binding (tested: 1.6 nM)	no binding (tested: 1.6 nM)	no binding (tested: 1.6 nM)	no binding (tested: 1.6 nM)	–	no binding (tested: 1.6 nM)
